Laboratory results reported in US20240041987A1, “NOVEL BIOACTIVE PEPTIDE COMBINATIONS AND USES THEREOF” (COLZYX AB, priority 2020, published 2024).
Where two headings read alike, the source gives them in different places.

Experiments:
microorganisms = conditions: cited from earlier work
wound healing = conditions: cited from earlier work
[1] = 25 ± 2° C./60% RH ± 5%, 1 month
[2] = 25 ± 2° C./60% RH ± 5%, 3 months

AAKPVATKPEVPRPQAAKPA (AAK20) [collagen VI derived polypeptide]
Antimicrobial activity? (microorganisms): Yes

DVNVFAIGVEDADEGALKEIASEPLNMHMFNL (DVN32) [collagen VI derived polypeptide]
Antimicrobial activity? (microorganisms): No | Wound healing activity? (wound healing): No

EQNFHKARRFVEQVARRLTL (EQN20) [collagen VI derived polypeptide]
Antimicrobial activity? (microorganisms): Yes

FFLKDFSTKRQIIDAINKVVYKGGR (FFL25) [collagen VI derived polypeptide]
Antimicrobial activity? (microorganisms): Yes | Wound healing activity? (wound healing): have wound healing properties and Yes

FTKRFIDNLRDRYYRCDRNL (FTK20) [collagen VI derived polypeptide]
Antimicrobial activity? (microorganisms): Yes

FYLKTYRSQAPVLDAIRRLRLRGGS (FYL25) [collagen VI derived polypeptide]
Antimicrobial activity? (microorganisms): Yes | Wound healing activity? (wound healing): have wound healing properties and Yes

GFAHIRDFVSRIVRRLNIGP (GFA20) [collagen VI derived polypeptide]
Antimicrobial activity? (microorganisms): Yes

GVRPDGFAHIRDFVSRIVRRLNIGPSKV (GVR28) [peptide derived from collagen VI alpha-3 chain]
Appearance (25 ± 2° C./60% RH ± 5%, 0 D): White powder | Identity (RP-HPLC) (25 ± 2° C./60% RH ± 5%, 0 D): Retention Time Conforms | Purity (RP-HPLC) (25 ± 2° C./60% RH ± 5%, 0 D): 98.1% | Related Impurities (by RRT), Specified Impurity %: RRT = 0.80*, RRT = 0.81* Total (25 ± 2° C./60% RH ± 5%, 0 D): 0.07% | Related Impurities (by RRT), Specified Impurity %: RRT = 0.96* (25 ± 2° C./60% RH ± 5%, 0 D): 0.38% | Related Impurities (by RRT), Specified Impurity %: RRT = 1.04 (25 ± 2° C./60% RH ± 5%, 0 D): 0.56% | Related Impurities (by RRT), Specified Impurity %: RRT = 1.13* (25 ± 2° C./60% RH ± 5%, 0 D): 0.22% | Unspecified Impurity % (Report ≥0.10%): RRT = 0.94 (25 ± 2° C./60% RH ± 5%, 0 D): 0.15% | Unspecified Impurity % (Report ≥0.10%): RRT = 1.09 (25 ± 2° C./60% RH ± 5%, 0 D): 0.32% | Unspecified Impurity % ≤0.50% (25 ± 2° C./60% RH ± 5%, 0 D): Conforms | Water Content (KF) (25 ± 2° C./60% RH ± 5%, 0 D): 4.2% | Appearance [1]: White powder | Identity (RP-HPLC) [1]: Retention Time Conforms | Purity (RP-HPLC) [1]: 97.7% | Related Impurities (by RRT), Specified Impurity %: RRT = 0.82* [1]: 0.07% | Related Impurities (by RRT), Specified Impurity %: RRT = 0.97 [1]: 0.40% | Related Impurities (by RRT), Specified Impurity %: RRT = 1.04 [1]: 0.57% | Related Impurities (by RRT), Specified Impurity %: RRT = 1.12 [1]: 0.49% | Unspecified Impurity % (Report ≥0.10%): RRT = 0.95 [1]: 0.16% | Unspecified Impurity % (Report ≥0.10%): RRT = 1.08 [1]: 0.32% | Unspecified Impurity % ≤0.50% [1]: Conforms | Water Content (KF) [1]: 3.9% | Appearance [2]: White powder | Identity (RP-HPLC) [2]: Retention Time Conforms | Purity (RP-HPLC) [2]: 97.3% | Related Impurities (by RRT), Specified Impurity %: RRT = 0.83* [2]: 0.12% | Related Impurities (by RRT), Specified Impurity %: RRT = 0.97 [2]: 0.41% | Related Impurities (by RRT), Specified Impurity %: RRT = 1.04 [2]: 0.56% | Related Impurities (by RRT), Specified Impurity %: RRT = 1.12 [2]: 0.77% | Unspecified Impurity % (Report ≥0.10%): RRT = 0.95 [2]: 0.17% | Unspecified Impurity % (Report ≥0.10%): RRT = 1.08 [2]: 0.32% | Unspecified Impurity % ≤0.50% [2]: conforms | Water Content (KF) [2]: 3.9% | change in purity during the initial 3 months (stored at 25° C.): slight decrease in purity | Appearance (−20 ± 5° C., 0 D): White powder | Identity (RP-HPLC) (−20 ± 5° C., 0 D): Retention Time Conforms | Purity (RP-HPLC) (−20 ± 5° C., 0 D): 98.10% | Related Impurities (by RRT), Specified Impurity %: RRT = 0.80*, RRT = 0.81* Total (−20 ± 5° C., 0 D): 0.07% | Related Impurities (by RRT), Specified Impurity %: RRT = 0.96* (−20 ± 5° C., 0 D): 0.38% | Related Impurities (by RRT), Specified Impurity %: RRT = 1.04 (−20 ± 5° C., 0 D): 0.56% | Related Impurities (by RRT), Specified Impurity %: RRT = 1.13* (−20 ± 5° C., 0 D): 0.22% | Unspecified Impurity % (Report ≥0.10%): RRT = 0.94 (−20 ± 5° C., 0 D): 0.15% | Unspecified Impurity % (Report ≥0.10%): RRT = 1.09 (−20 ± 5° C., 0 D): 0.32% | Unspecified Impurity % ≤0.50% (−20 ± 5° C., 0 D): conforms | Water Content (KF) (−20 ± 5° C., 0 D): 4.2% | Appearance (−20 ± 5° C., 3 months): White powder | Identity (RP-HPLC) (−20 ± 5° C., 3 months): Retention Time Conforms | Purity (RP-HPLC) (−20 ± 5° C., 3 months): 98.10% | Related Impurities (by RRT), Specified Impurity %: RRT = 0.83* (−20 ± 5° C., 3 months): 0.04% | Related Impurities (by RRT), Specified Impurity %: RRT = 0.97 (−20 ± 5° C., 3 months): 0.38% | Related Impurities (by RRT), Specified Impurity %: RRT = 1.04 (−20 ± 5° C., 3 months): 0.54% | Related Impurities (by RRT), Specified Impurity %: RRT = 1.12 (−20 ± 5° C., 3 months): 0.20% | Unspecified Impurity % (Report ≥0.10%): RRT = 0.95 (−20 ± 5° C., 3 months): 0.17% | Unspecified Impurity % (Report ≥0.10%): RRT = 1.08 (−20 ± 5° C., 3 months): 0.31% | Unspecified Impurity % ≤0.50% (−20 ± 5° C., 3 months): conforms | Water Content (KF) (−20 ± 5° C., 3 months): 1.8% | Antimicrobial activity? (microorganisms): Yes | Wound healing activity? (wound healing): have wound healing properties and Yes

KGFESKVDAILNRISQMHRV (KGF20) [collagen VI derived polypeptide]
Antimicrobial activity? (microorganisms): Yes

KPEILNLVKRMKIKTGKALN (KPE20) [collagen VI derived polypeptide]
Antimicrobial activity? (microorganisms): Yes

LRLKPYGALVDKVKSFTKRF (LRL20) [collagen VI derived polypeptide]
Antimicrobial activity? (microorganisms): Yes

QAPVLDAIRRLRLRGGSPLN (QAP20) [collagen VI derived polypeptide]
Antimicrobial activity? (microorganisms): Yes

RDALKSSVDAVKYFGKGTYT (RDA20) [collagen VI derived polypeptide]
Antimicrobial activity? (microorganisms): Yes

RKVAVFFSNTPTRASPQLRE (RKV20) [collagen VI derived polypeptide]
Antimicrobial activity? (microorganisms): Yes

SFVARNTFKRVRNGFLMRKVAVFFSNTPTRASP (SFV33) [peptide derived from collagen VI alpha-3 chain]
Appearance (25 ± 2° C./60% RH ± 5%, 0 D): White powder | Identity (RP-HPLC) (25 ± 2° C./60% RH ± 5%, 0 D): Retention Time Conforms | Impurity (Report all ≥0.10%): RRT = 0.65 (25 ± 2° C./60% RH ± 5%, 0 D): 0.17% | Impurity (Report all ≥0.10%): RRT = 1.02 (25 ± 2° C./60% RH ± 5%, 0 D): 0.23% | No other individual impurity ≥0.50% (25 ± 2° C./60% RH ± 5%, 0 D): conforms | Purity (RP-HPLC) (25 ± 2° C./60% RH ± 5%, 0 D): 98.1% | Related Impurities (by RRT), Specified Impurity %: RRT = 0.90 (25 ± 2° C./60% RH ± 5%, 0 D): 0.26% | Related Impurities (by RRT), Specified Impurity %: RRT = 0.95 (25 ± 2° C./60% RH ± 5%, 0 D): 0.14% | Related Impurities (by RRT), Specified Impurity %: RRT = 0.97 (25 ± 2° C./60% RH ± 5%, 0 D): 0.47% | Water Content (KF) (25 ± 2° C./60% RH ± 5%, 0 D): 4.7% | Appearance [1]: White powder | Identity (RP-HPLC) [1]: Retention Time Conforms | Impurity (Report all ≥0.10%): RRT = 0.66 [1]: 0.13% | Impurity (Report all ≥0.10%): RRT = 0.85 [1]: 0.11% | Impurity (Report all ≥0.10%): RRT = 1.02 [1]: 0.31% | Impurity (Report all ≥0.10%): RRT = 1.04 [1]: 0.17% | Impurity (Report all ≥0.10%): RRT = 1.08 [1]: 0.24% | No other individual impurity ≥0.50% [1]: conforms | Purity (RP-HPLC) [1]: 97.8% | Related Impurities (by RRT), Specified Impurity %: RRT = 0.90 [1]: 0.24% | Related Impurities (by RRT), Specified Impurity %: RRT = 0.95 [1]: 0.13% | Related Impurities (by RRT), Specified Impurity %: RRT = 0.97 [1]: 0.47% | Water Content (KF) [1]: 6.8% | Appearance [2]: White powder | Identity (RP-HPLC) [2]: Retention Time Conforms | Impurity (Report all ≥0.10%): RRT = 0.62 [2]: 0.15% | Impurity (Report all ≥0.10%): RRT = 0.84 [2]: 0.28% | No other individual impurity ≥0.50% [2]: Not conforms * | Purity (RP-HPLC) [2]: 96.9% | Related Impurities (by RRT), Specified Impurity %: RRT = 0.90 [2]: 0.20% | Related Impurities (by RRT), Specified Impurity %: RRT = 0.95 [2]: 0.09% | Related Impurities (by RRT), Specified Impurity %: RRT = 0.97 [2]: 0.42% | Water Content (KF) [2]: 8.4% | change in purity during the initial 3 months (stored at 25° C.): slight decrease in purity | new impurities (stored at 25° C., at 3 months): some new impurities were detected | change of water content (stored at 25° C., over the 3 months): increased | Appearance (−20 ± 5° C., 0 D): White powder | Identity (RP-HPLC) (−20 ± 5° C., 0 D): Retention Time Conforms | Impurity (Report all ≥0.10%): RRT = 0.65 (−20 ± 5° C., 0 D): 0.17% | Impurity (Report all ≥0.10%): RRT = 1.02 (−20 ± 5° C., 0 D): 0.23% | No other individual impurity ≥0.50% (−20 ± 5° C., 0 D): conforms | Purity (RP-HPLC) (−20 ± 5° C., 0 D): 98.1% | Related Impurities (by RRT), Specified Impurity %: RRT = 0.90 (−20 ± 5° C., 0 D): 0.26% | Related Impurities (by RRT), Specified Impurity %: RRT = 0.95 (−20 ± 5° C., 0 D): 0.14% | Related Impurities (by RRT), Specified Impurity %: RRT = 0.97 (−20 ± 5° C., 0 D): 0.47% | Water Content (KF) (−20 ± 5° C., 0 D): 4.7% | Appearance (−20 ± 5° C., 1 month): White powder | Identity (RP-HPLC) (−20 ± 5° C., 1 month): Retention Time Conforms | Impurity (Report all ≥0.10%): RRT = 1.03 (−20 ± 5° C., 1 month): 0.24% | No other individual impurity ≥0.50% (−20 ± 5° C., 1 month): conforms | Purity (RP-HPLC) (−20 ± 5° C., 1 month): 98.3% | Related Impurities (by RRT), Specified Impurity %: RRT = 0.90 (−20 ± 5° C., 1 month): 0.23% | Related Impurities (by RRT), Specified Impurity %: RRT = 0.95 (−20 ± 5° C., 1 month): 0.10% | Related Impurities (by RRT), Specified Impurity %: RRT = 0.98 (−20 ± 5° C., 1 month): 0.44% | Water Content (KF) (−20 ± 5° C., 1 month): 4.9% | Antimicrobial activity? (microorganisms): Yes | Wound healing activity? (wound healing): No

TKRFAKRLAERFLTAGRTDP (TKR20) [collagen VI derived polypeptide]
Antimicrobial activity? (microorganisms): Yes

TSSPTSNPVTTTKPVTTTKPVTTTTKPVTTTTKPVT (TSS36) [collagen VI derived polypeptide]
Antimicrobial activity? (microorganisms): Yes

TTKPVTTTKPVTTTTKPVTT (TTK20) [collagen VI derived polypeptide]
Antimicrobial activity? (microorganisms): Yes

VAAKPVATKMAVRPPVAVKP (VAA20) [collagen VI derived polypeptide]
Antimicrobial activity? (microorganisms): Yes

VTTEIRFADSKRKSVLLDKIKNLQVALTSK (VTT30) [collagen VI derived polypeptide]
Antimicrobial activity? (microorganisms): Yes | Wound healing activity? (wound healing): have wound healing properties and Yes

VVHAINAIVRSPRGGARRHA (VVH20) [collagen VI derived polypeptide]
Antimicrobial activity? (microorganisms): Yes

YDRLIKESRRQKTRVFAVVI (YDR20) [collagen VI derived polypeptide]
Antimicrobial activity? (microorganisms): Yes

B1: AAAKPAPAKPVAAKPVATKMATVRPPVAVKPATAAKPVAAKPAAVRPPAAAAAKPVATKPEVPRPQAAKPAATKPA (peptide)
chain: AAAKPAPAKPVAAKPVATKMATVRPPVAVKPATAAKPVAAKPAAVRPPAAAAAKPVATKPEVPRPQAAKPAATKPA
modifications: AAA76
notes: collagen VI derived polypeptide
Antimicrobial activity? (microorganisms): Yes
